Reference: PMC5586252 (2017)
Where no end group is shown, it is not given here.

B1: native Cyk4 peptide (synthetic) (peptide)
chain: LSTIDESGS
modifications: synthetic peptide; exact ends and termini not given, the printed motif 143-LSTIDESGS-151 is used as the core

Experiments:
B′γ1 regulatory subunit [1] = biological target: T1, B′γ1 regulatory subunit (UniProt Q13362-2 1-449); test: BLI
PP2A-B′γ1 holoenzyme = PP2A-B′γ1 holoenzyme (UniProt P30153 1-589; P67775 1-309; Q13362-2 1-449); test: BLI
PP2A-B′γ1 holoenzyme, sequence (P30153 whole entry, chain 1 of 3, other chains not shown): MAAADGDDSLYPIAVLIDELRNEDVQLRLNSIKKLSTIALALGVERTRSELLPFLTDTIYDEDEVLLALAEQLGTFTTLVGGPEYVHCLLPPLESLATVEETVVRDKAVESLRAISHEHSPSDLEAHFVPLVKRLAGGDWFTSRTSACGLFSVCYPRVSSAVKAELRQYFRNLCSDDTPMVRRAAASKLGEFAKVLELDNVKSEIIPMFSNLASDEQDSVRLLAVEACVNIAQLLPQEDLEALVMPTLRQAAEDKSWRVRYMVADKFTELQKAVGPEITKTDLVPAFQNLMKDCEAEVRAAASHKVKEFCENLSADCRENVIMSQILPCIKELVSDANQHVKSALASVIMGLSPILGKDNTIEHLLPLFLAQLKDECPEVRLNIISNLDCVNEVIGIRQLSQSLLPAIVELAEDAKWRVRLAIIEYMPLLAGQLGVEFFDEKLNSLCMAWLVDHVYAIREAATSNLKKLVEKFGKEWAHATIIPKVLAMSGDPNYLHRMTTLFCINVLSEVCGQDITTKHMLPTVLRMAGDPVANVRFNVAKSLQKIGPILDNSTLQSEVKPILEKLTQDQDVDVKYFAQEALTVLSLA
PP2A-B′γ1 holoenzyme, sequence (P67775 whole entry, chain 2 of 3, other chains not shown): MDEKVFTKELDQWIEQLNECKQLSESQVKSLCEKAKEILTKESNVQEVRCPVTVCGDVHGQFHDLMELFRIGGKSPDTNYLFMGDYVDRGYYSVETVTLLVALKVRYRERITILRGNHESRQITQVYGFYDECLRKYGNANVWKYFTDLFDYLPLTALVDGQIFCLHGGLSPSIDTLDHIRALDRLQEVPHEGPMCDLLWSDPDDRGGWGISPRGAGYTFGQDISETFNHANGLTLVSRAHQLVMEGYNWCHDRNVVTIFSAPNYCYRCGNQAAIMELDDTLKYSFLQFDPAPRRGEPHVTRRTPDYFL

B′α regulatory subunit = B′α regulatory subunit (UniProt Q15172 1-486); test: BLI
B′α regulatory subunit, sequence (Q15172 whole entry): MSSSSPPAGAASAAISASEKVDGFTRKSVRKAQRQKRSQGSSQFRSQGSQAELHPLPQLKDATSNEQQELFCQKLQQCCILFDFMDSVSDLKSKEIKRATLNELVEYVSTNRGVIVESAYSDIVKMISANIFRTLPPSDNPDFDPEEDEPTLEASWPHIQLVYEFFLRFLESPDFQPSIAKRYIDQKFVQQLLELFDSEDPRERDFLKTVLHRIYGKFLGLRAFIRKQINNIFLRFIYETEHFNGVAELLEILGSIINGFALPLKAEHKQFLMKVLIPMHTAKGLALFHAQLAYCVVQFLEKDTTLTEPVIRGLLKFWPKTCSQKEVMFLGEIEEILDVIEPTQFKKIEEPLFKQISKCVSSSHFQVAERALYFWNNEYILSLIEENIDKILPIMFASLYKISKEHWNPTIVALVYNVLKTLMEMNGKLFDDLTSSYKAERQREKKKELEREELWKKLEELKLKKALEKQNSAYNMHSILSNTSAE

B′γ1 regulatory subunit [2] = biological target: T1, B′γ1 regulatory subunit; test: ITC

| Binder | Kd (B′γ1 regulatory subunit [1]) | Kd (PP2A-B′γ1 holoenzyme) | Kd (B′α regulatory subunit) | Kd (B′γ1 regulatory subunit [2]) |
| --- | --- | --- | --- | --- |
| LSSIPEASEYDWRNYQ [GST-tagged C3orf67 peptide (B′-binding motif)] | 62 nM | 43 nM | 450 nM | – |
| QNQFSEHDKTLYRIPE [GST-tagged TJP1 peptide (B′-binding motif)] | 161 nM | – | 490 nM | – |
| FQHNRKLESVAEEHEI [GST-tagged KIAA1524 (CIP2A) peptide (B′-binding motif)] | 121 nM | 310 nM | 330 nM | – |
| IKKLSPIIEDSREATH [GST-tagged BUB1B peptide (B′-binding motif)] | 43 nM | 34 nM | 226 nM | – |
| HVLYPIPESSSDSPLA [GST-tagged STON1 peptide (B′-binding motif)] | 3000 nM | – | 11800 nM | – |
| YQPLECIVEETEGKLN (not fully specified) [GST-tagged ANKHD1 peptide (B′-binding motif)] | 2100 nM | 320 nM | 1090 nM | – |
| LETIPESEPSGMNRIL [GST-tagged DENND2C peptide (B′-binding motif)] | 530 nM | 221 nM | – | – |
| B1 | – | – | – | 22700 nM |
| KLPHVLSSIAEEEHHL [GST-tagged SYT16 peptide (B′-binding motif)] | 340 nM | 121 nM | 197 nM | – |
| NKRLSTIDEEGS [Cyk4 peptide S149E] | – | – | – | 1590 nM |
| LSTIDEEGE [Cyk4 S149E/S151E peptide (synthetic, phosphomimetic)] | – | – | – | 1300 nM |
